According to patent US20090226456A1 (published 2009):

How the values were obtained:
Assay in all cases: flow cytometry on transiently transfected cells
[1] = molecular target: T1, CD30 on transiently transfected cells (UniProt P28908 19-595, limits assumed)
T1 construct: whole, on cells
T1 sequence (looked up): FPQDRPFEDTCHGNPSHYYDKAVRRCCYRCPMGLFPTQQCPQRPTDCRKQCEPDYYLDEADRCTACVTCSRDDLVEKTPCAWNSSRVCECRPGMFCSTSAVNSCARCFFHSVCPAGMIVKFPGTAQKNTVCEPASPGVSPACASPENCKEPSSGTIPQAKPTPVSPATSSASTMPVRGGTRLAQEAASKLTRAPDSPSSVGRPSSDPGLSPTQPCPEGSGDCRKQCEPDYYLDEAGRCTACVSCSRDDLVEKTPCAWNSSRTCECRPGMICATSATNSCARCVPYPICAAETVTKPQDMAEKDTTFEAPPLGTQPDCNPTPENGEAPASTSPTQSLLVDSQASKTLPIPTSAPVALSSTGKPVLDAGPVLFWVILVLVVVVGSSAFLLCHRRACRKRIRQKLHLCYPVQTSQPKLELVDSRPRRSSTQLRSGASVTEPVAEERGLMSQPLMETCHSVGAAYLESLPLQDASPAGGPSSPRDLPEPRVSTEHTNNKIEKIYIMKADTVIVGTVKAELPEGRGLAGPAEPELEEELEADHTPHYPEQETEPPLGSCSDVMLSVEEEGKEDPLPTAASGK
Experimental: (§1) One million cells, in 0.1 ml of FACS buffer (PBS, 0.1% BSA, 0.1% NaN₃), were incubated with 0.1-1 microgram of protein or antibody at RT for 15 min. The cells were washed with 3 ml of FACS buffer, reacted with biotinylated primary antibody, and stained with PE-conjugated secondary antibody at RT for 15 min. Cells were then washed again, resuspended in 0.5 microgram/ml of propidium iodide, and live cells were gated and analyzed on a FACScan using the CellQuest software (BD Biosciences).

[2] = molecular target: T2, DR4 on transiently transfected cells (UniProt O00220 24-468, limits assumed)
T2 construct: whole, on cells
T2 sequence (looked up): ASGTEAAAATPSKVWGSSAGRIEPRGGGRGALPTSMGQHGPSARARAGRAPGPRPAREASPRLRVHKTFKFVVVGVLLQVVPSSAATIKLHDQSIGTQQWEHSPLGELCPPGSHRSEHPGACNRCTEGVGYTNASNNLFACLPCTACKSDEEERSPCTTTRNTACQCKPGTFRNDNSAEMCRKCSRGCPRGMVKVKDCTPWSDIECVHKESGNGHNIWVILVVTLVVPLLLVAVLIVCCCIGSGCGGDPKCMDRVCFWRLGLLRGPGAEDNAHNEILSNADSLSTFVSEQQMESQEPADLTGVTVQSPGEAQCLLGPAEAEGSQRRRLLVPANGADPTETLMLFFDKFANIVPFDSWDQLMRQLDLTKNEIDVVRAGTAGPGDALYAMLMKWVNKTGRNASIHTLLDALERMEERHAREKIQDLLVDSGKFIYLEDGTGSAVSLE
Experimental: as §1

[3] = molecular target: T3, DR5 on transiently transfected cells (UniProt O14763 56-440, limits assumed)
T3 construct: whole, on cells
Experimental: as §1

[4] = molecular target: T4, DcR1 on transiently transfected cells (UniProt O14798 26-236, limits assumed)
T4 construct: whole, on cells
T4 sequence (looked up): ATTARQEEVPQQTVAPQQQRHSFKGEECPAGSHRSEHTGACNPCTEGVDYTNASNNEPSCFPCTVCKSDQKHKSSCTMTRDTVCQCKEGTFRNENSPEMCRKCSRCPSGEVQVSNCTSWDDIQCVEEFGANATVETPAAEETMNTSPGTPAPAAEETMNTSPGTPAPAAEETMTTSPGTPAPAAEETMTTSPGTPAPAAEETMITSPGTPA
Experimental: as §1

[5] = molecular target: T5, DcR2 on transiently transfected cells (UniProt Q9UBN6 56-386, limits assumed)
T5 construct: whole, on cells
T5 sequence (looked up): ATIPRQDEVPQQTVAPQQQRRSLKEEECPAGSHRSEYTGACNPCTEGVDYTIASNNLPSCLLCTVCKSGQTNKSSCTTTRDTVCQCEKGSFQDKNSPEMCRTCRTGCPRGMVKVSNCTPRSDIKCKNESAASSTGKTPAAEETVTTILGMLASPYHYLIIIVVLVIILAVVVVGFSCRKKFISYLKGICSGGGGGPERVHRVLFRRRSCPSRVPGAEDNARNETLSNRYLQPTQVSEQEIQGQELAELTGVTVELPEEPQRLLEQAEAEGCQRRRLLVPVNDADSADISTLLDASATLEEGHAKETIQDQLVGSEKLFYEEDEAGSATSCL
Experimental: as §1

[6] = molecular target: T6, RANK on transiently transfected cells (UniProt Q9Y6Q6 30-616, limits assumed)
T6 construct: whole, on cells
T6 sequence (looked up): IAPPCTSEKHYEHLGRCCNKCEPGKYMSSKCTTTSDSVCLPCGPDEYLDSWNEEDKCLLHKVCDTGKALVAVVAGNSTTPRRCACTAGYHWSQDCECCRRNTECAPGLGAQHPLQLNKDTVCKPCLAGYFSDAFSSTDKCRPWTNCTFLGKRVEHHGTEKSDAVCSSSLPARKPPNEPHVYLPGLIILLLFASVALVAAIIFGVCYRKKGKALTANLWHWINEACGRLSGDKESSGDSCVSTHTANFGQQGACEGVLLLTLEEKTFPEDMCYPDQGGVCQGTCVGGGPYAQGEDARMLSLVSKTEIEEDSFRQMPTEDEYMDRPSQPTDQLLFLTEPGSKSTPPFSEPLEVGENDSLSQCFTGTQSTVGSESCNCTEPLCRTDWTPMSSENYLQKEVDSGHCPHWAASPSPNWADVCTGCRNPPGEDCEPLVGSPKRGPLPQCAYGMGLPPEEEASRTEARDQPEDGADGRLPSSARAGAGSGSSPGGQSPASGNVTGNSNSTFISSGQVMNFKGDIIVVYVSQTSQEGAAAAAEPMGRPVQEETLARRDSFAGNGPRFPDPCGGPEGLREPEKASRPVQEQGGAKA
Experimental: as §1

[7] = molecular target: T7, AITR on transiently transfected cells (UniProt Q9Y5U5 26-241, limits assumed)
T7 construct: whole, on cells
T7 sequence (looked up): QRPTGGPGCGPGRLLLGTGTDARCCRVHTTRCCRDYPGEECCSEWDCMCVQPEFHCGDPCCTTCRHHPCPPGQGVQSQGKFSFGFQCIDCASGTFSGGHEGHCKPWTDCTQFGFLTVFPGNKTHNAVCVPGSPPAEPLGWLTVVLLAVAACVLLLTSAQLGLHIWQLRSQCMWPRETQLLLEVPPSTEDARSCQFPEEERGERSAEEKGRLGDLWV
Experimental: as §1

Measured: binding result

B1: FLAG-tagged soluble TNF-gamma-beta (aa 72-251) (ligand, human)
chain: DYKDDDDKLKGQEFAPSHQQVYAPLRADGDKPRAHLTVVRQTPTQHFKNQFPALHWEHELGLAFTKNRMNYTNKFLLIPESGDYFIYSQVTFRGMTSECSEIRQAGRPNKPDSITVVITKVTDSYPEPTQLLMGTKSVCEVGSNWFQPIYLGAMFSLQEGDKLMVNVSDISLVDYTKEDKTFFGAFLL
notes: also called FLAG-TNF-gamma-beta; FLAG-TL1β
no binding: all assays above
